Paper PMC11184549 (ACS Infectious Diseases, 2024)
No end group written: not given here. *: point of attachment. FITC = O=C1OC2(c3ccc(O)cc3Oc3cc(O)ccc32)c2ccc(NC(=S)*)cc21; Ahx = NCCCCCC(=O)O

Target: human IMPα1 lacking the IMPβ-binding domain (IMPαΔIBB) (human, UniProt P52292 70-529)
Experiment: fluorescence polarisation

For {FITC-Ahx}-LWGFLSRNKKPRICTREEF [FITC-labeled DENV1 NS5 NLS_(Central) peptide], the Kd was > 700 nM.
